{"source": "patent US6294648A", "about": "“Protein having proteinase inhibitor activity” (Bayer Corporation, priority 1999, dated 2001)", "origin": "cited, not measured here", "molecules": {"B1": {"name": "Alpha-1-antichymotrypsin: serpin family proteinase inhibitor (protein, UniProt P01011 24-423, looked up)", "Alpha-1-antichymotrypsin": "HPNSPLDEENLTQENQDRGTHVDLGLASANVDFAFSLYKQLVLKAPDKNVIFSPLSISTALAFLSLGAHNTTLTEILKGLKFNLTETSEAEIHQSFQHLLRTLNQSSDELQLSMGNAMFVKEQLSLLDRFTEDAKRLYGSEAFATDFQDSAAAKKLINDYVKNGTRGKITDLIKDLDSQTMMVLVNYIFFKAKWEMPFDPQDTHQSRFYLSKKKWVMVPMMSLHHLTIPYFRDEELSCTVVELKYTGNASALFILPDQDKMEEVEAMLLPETLKRWRDSLEFREIGELYLPKFSISRDYNLNDILLQLGIEEAFTSKADLSGITGARNLAVSQVVHKAVLDVFEEGTEASAATAVKITLLSALVETRTIVRFNRPFLMIIVPTDTQNIFFMSKVTNPKQA"}, "B2": {"name": "placental bikunin: Kunitz family inhibitor; potent inhibitor of plasmin (protein, UniProt O43291 28-252, looked up)", "Kunitz-type protease …": "ADRERSIHDFCLVSKVVGRCRASMPRWWYNVTDGSCQLFVYGGCDGNSNNYLTKEECLKKCATVTENATGDLATSRNAADSSVPSAPRRQDSEDHSSDMFNYEEYCTANAVTGPCRASFPRWYFDVERNSCNNFIYGGCRGNKNSYRSEEACMLRCFRQQENPPLPLGSKVVVLAGLFVMVLILFLGASMVYLIRVARRNQERALRTVWSSGDDKEQLVKNTYVL"}, "B3": {"name": "Eglin C: member of the potato inhibitor 1 family from leech Hirudo medicinalis (protein, UniProt P01051 1-70, looked up)", "Eglin C": "TEFGSELKSFPEVVGKTVDQAREYFTLHYPQYDVYFLPEGSPVTLDLRYNRVRVFYNPGTNVVNHVPHVG"}, "B4": {"name": "Monocyte/neutrophil elastase inhibitor: a serpin family inhibitor (protein, UniProt P30740 1-379, looked up)", "Leukocyte elastase inhibitor": "MEQLSSANTRFALDLFLALSENNPAGNIFISPFSISSAMAMVFLGTRGNTAAQLSKTFHFNTVEEVHSRFQSLNADINKRGASYILKLANRLYGEKTYNFLPEFLVSTQKTYGADLASVDFQHASEDARKTINQWVKGQTEGKIPELLASGMVDNMTKLVLVNAIYFKGNWKDKFMKEATTNAPFRLNKKDRKTVKMMYQKKKFAYGYIEDLKCRVLELPYQGEELSMVILLPDDIEDESTGLKKIEEQLTLEKLHEWTKPENLDFIEVNVSLPRFKLEESYTLNSDLARLGVQDLFNSSKADLSGMSGARDIFISKIVHKSFVEVNEEGTEAAAATAGIATFCMLMPEENFTADHPFLFFIRHNSSGSILFLGRFSSP"}, "B5": {"name": "STI: Kunitz family inhibitor of trypsin from soybean (protein, UniProt P01070 25-205, looked up)", "Trypsin inhibitor A": "DFVLDNEGNPLENGGTYYILSDITAFGGIRAAPTGNERCPLTVVQSRNELDKGIGTIISSPYRIRFIAEGHPLSLKFDSFAVIMLCVGIPTEWSVVEDLPEGPAVKIGENKDAMDGWFRLERVSDDEFNNYKLVFCPQQAEDDKCGDIGISIDHDDGTRRLVVSKNKPLVVQFQKLDKESL"}, "B6": {"name": "Antileukoproteinase (SLPI): member of the mucous proteinase inhibitor family (protein, UniProt P03973 26-132, looked up)", "Antileukoproteinase": "SGKSFKAGVCPPKKSAQCLRYKKPECQSDWQCPGKKRCCPDTCGIKCLDPVDTPNPTRRKPGKCPVTYGQCLMLNPPNFCEMDGQCKRDLKCCMGMCGKSCVSPVKA"}}, "key": {"[1]": {"target": "T1, cathepsin G (Homo sapiens, UniProt P08311)", "T1 sequence (P08311 21-255)": "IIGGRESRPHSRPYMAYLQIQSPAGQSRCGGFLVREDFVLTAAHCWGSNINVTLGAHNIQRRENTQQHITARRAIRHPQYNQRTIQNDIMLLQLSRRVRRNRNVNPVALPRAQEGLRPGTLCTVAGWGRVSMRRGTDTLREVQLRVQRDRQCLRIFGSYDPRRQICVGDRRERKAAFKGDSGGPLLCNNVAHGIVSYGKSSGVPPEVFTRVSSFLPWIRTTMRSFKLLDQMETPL"}, "[2]": {"target": "T2, proteinase 3 (Homo sapiens, UniProt P24158)", "T2 sequence (P24158 28-256)": "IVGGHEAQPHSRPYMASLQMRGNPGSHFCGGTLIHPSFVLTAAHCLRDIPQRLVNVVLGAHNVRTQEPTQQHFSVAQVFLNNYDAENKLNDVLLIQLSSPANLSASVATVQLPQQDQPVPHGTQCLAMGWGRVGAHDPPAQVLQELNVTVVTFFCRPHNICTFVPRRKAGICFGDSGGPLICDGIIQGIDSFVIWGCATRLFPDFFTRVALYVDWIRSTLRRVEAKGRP"}, "[3]": {"target": "T3, leukocyte elastase (Homo sapiens, UniProt P08246)", "T3 sequence (P08246 30-267)": "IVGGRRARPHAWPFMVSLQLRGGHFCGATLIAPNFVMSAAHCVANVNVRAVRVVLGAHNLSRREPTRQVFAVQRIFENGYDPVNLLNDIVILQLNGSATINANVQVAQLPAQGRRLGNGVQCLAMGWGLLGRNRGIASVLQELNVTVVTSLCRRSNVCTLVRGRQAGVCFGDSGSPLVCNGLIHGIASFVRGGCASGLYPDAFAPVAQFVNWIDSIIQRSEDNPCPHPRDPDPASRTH"}, "[4]": {"target": "plasmin (Homo sapiens, UniProt P00747)", "sequence (P00747 581-810 limits assumed, species assumed)": "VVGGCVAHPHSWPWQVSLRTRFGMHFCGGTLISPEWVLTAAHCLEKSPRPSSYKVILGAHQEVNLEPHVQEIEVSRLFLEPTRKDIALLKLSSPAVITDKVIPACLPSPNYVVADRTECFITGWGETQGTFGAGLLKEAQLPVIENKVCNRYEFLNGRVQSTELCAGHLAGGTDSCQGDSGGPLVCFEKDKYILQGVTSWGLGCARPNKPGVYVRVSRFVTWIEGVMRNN", "sequence (P00747 97-580 partner limits assumed, species assumed)": "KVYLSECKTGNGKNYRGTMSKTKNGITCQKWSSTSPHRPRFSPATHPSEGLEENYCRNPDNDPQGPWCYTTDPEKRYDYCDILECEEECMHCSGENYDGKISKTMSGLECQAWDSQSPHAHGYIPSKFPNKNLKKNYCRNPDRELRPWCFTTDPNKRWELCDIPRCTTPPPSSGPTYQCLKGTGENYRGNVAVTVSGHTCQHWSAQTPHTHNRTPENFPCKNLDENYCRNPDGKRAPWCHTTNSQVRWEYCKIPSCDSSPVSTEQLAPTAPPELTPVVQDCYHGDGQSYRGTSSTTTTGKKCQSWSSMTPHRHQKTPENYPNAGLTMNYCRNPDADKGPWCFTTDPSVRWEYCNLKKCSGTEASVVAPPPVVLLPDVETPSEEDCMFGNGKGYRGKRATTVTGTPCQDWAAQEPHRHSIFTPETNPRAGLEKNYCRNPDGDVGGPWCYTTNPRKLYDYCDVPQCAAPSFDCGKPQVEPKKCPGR"}, "[5]": {"target": "T4, trypsin (Bos taurus, UniProt P00760)", "T4 construct": "gene PRSS1", "T4 sequence (P00760 24-246)": "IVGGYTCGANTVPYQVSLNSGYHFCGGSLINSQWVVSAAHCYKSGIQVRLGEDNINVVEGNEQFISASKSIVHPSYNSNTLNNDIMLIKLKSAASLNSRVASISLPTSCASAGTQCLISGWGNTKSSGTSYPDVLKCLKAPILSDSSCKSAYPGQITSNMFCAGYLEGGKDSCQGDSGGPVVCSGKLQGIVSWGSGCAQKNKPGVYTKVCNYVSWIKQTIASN"}, "[6]": {"target": "chymotrypsin"}, "[7]": {"system": "leukocyte elastase-induced emphysema", "details": "hamsters"}, "[8]": {"system": "activated neutrophils"}, "[9]": {"system": "neutrophil-induced ECM solubilization"}}, "note": "Like-named read-outs stand apart in the source and are kept apart here."}
{"molecule": "B1", "values": [{"measurement": "inhibition of cathepsin G, in words", "setting": "[1]", "value": "inhibits"}, {"measurement": "inhibition of proteinase 3, in words", "setting": "[2]", "value": "not proteinase 3"}]}
{"molecule": "B2", "values": [{"measurement": "inhibition of leukocyte elastase, in words", "setting": "[3]", "value": "not leukocyte elastase"}, {"measurement": "inhibition of plasmin, in words", "setting": "[4]", "value": "potent inhibitor"}, {"measurement": "Ki", "setting": "[5]", "value": 0.01, "unit": "nM"}, {"measurement": "Ki", "setting": "[6]; read-out: Ki, chymotrypsin", "value": 0.48, "unit": "nM"}]}
{"molecule": "B3", "values": [{"measurement": "Ki", "setting": "[1]", "value": "~0.1", "unit": "nM"}, {"measurement": "inhibition of proteinase 3, in words", "setting": "[2]", "value": "only weakly inhibits"}, {"measurement": "Ki", "setting": "[3]; read-out: Ki, leukocyte elastase", "value": 0.37, "unit": "nM"}, {"measurement": "protection against leukocyte elastase-induced emphysema / pulmonary hemorrhage", "setting": "[7]", "value": "completely protected"}]}
{"molecule": "B4", "values": [{"measurement": "inhibition of proteinase 3, in words", "setting": "[2]", "value": "inhibits"}, {"measurement": "inhibition of leukocyte elastase, in words", "setting": "[3]", "value": "inhibits"}]}
{"molecule": "B5", "values": [{"measurement": "ET-1 degradation", "setting": "[8]", "value": "abolishes ET-1 degradation almost completely"}, {"measurement": "inhibition of trypsin, in words", "setting": "[5]", "value": "potent"}, {"measurement": "inhibition of neutrophil-induced ECM solubilization", "setting": "[9]", "value": "completely or nearly completely inhibit"}, {"measurement": "inhibition of chymotrypsin, in words", "setting": "[6]", "value": "significantly weaker inhibitor"}, {"measurement": "Ki", "setting": "[6]; read-out: Ki(1), chymotrypsin", "value": 1000, "unit": "nM"}, {"measurement": "Ki", "setting": "[6]; read-out: Ki(2), chymotrypsin", "value": 300, "unit": "nM"}]}
{"molecule": "B6", "values": [{"measurement": "inhibition of cathepsin G, in words", "setting": "[1]", "value": "not"}, {"measurement": "inhibition of proteinase 3, in words", "setting": "[2]", "value": "not proteinase 3"}, {"measurement": "Ki", "setting": "[3]; read-out: Ki, elastase", "value": 0.6, "unit": "nM"}]}
